{
  "source": "paper doi:10.1101/2021.03.03.433707",
  "about": "(bioRxiv, 2021)",
  "binders": {"B1": {"name": "MukB long hinge (LH, 568-863) (domain or fragment, E. coli, UniProt P22523 568-863, looked up)", "chain": "SLSDSVSNAREERMALRQEQEQLQSRIQSLMQRAPVWLAAQNSLNQLSEQCGEEFTSSQDVTEYLQQLLEREREAIVERDEVGARKNAVDEEIERLSQPGGSEDQRLNALAERFGGVLLSEIYDDVSLEDAPYFSALYGPSRHAIVVPDLSQVTEHLEGLTDCPEDLYLIEGDPQSFDDSVFSVDELEKAVVVKIADRQWRYSRFPEVPLFGRAARESRIESLHAEREVLSERFATLSFDVQKTQRLHQAFSRFIGSHLAVAFESDPEAEIRQLNSRRVELERALSNHENDNQQQR"}, "B2": {"name": "ParE-His (enzyme, E. coli, UniProt P20083 1-630, looked up)", "chain": "MTQTYNADAIEVLTGLEPVRRRPGMYTDTTRPNHLGQEVIDNSVDEALAGHAKRVDVILHADQSLEVIDDGRGMPVDIHPEEGVPAVELILCRLHAGGKFSNKNYQFSGGLHGVGISVVNALSKRVEVNVRRDGQVYNIAFENGEKVQDLQVVGTCGKRNTGTSVHFWPDETFFDSPRFSVSRLTHVLKAKAVLCPGVEITFKDEINNTEQRWCYQDGLNDYLAEAVNGLPTLPEKPFIGNFAGDTEAVDWALLWLPEGGELLTESYVNLIPTMQGGTHVNGLRQGLLDAMREFCEYRNILPRGVKLSAEDIWDRCAYVLSVKMQDPQFAGQTKERLSSRQCAAFVSGVVKDAFILWLNQNVQAAELLAEMAISSAQRRMRAAKKVVRKKLTSGPALPGKLADCTAQDLNRTELFLVEGDSAGGSAKQARDREYQAIMPLKGKILNTWEVSSDEVLASQEVHDISVAIGIDPDSDDLSQLRYGKICILADADSDGLHIATLLCALFVKHFRALVKHGHVYVALPPLYRIDLGKEVYYALTEEEKEGVLEQLKRKKGKPNVQRFKGLGEMNPMQLRETTLDPNTRRLVQLTIDDEDDQRTDAMMDMLLAKKRSEDRRNWLQEKGDMAEIEV"}, "B3": {"name": "MatP^4A (K71A, Q72A, R75A and R77A) (domain or fragment, E. coli, UniProt P0A8N0 1-132, looked up)", "chain": "MKYQQLENLESGWKWKYLVKKHREGELITRYIEASAAQEAVDVLLSLENEPVLVNGWIDKHMNPELVNRMAATIAAARKRHFNAEHQHTRKKSIDLEFIVWQRLAGLAQRRGKTLSETIVQLIEDAENKEKY"}, "B4": {"name": "MatP^4E (K71E, Q72E, R75E and R77E) (domain or fragment, E. coli, UniProt P0A8N0 1-132, looked up)", "chain": "B3 chain with A71E, A72E, A75E, A77E"}},
  "key": {"[1]": {"target": "the molecule itself", "assay": "native MS"}, "[2]": {"target": "T1, ParC, full length (E. coli, UniProt P0AFI2 1-752)", "T1 sequence (looked up)": "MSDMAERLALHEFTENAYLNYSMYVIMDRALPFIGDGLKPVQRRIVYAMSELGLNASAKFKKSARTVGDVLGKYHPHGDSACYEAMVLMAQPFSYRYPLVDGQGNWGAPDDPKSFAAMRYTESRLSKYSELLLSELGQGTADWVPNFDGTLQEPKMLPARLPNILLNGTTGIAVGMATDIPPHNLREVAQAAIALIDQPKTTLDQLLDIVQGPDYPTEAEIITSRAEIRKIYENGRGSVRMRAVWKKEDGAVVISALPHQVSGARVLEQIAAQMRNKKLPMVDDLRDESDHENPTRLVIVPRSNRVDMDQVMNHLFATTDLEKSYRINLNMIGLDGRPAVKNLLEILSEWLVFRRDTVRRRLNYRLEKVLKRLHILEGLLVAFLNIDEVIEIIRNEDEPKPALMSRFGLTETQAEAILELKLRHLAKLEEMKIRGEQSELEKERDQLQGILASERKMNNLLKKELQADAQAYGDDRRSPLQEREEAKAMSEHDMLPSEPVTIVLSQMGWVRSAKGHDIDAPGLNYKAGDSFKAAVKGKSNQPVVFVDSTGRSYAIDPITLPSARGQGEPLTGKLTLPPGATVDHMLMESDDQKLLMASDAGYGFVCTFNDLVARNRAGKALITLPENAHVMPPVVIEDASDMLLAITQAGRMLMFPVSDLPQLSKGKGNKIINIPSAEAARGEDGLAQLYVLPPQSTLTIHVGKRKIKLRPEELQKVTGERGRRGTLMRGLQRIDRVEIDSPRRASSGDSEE", "assay": "native MS"}, "[3]": {"target": "T1, ParC, full length", "assay": "ITC"}, "[4]": {"target": "T1, ParC, full length", "assay": "SEC"}},
  "note": "Where a chain is given by its changes, count along the chain named. Names and notes keep the numbering of the source.",
  "data": [
    {"binder": "B1", "values": [
      {"measurement": "stoichiometry N", "setting": "[1]", "result": 2},
      {"measurement": "stoichiometry N", "setting": "[2]", "result": 1, "unit": "ParC dimer per LH dimer"},
      {"measurement": "Kd", "setting": "[3]", "result": 690, "unit": "nM"},
      {"measurement": "dH", "setting": "[3]", "result": -7.48, "unit": "kcal/mol"},
      {"measurement": "stoichiometry N", "setting": "[3]", "result": 0.84}
    ]},
    {"binder": "B2", "values": [
      {"measurement": "binding result", "setting": "[4]", "result": "binds"}
    ]},
    {"binder": "B3", "values": [
      {"measurement": "stoichiometry N", "setting": "[1]", "result": 2}
    ]},
    {"binder": "B4", "values": [
      {"measurement": "stoichiometry N", "setting": "[1]", "result": 2}
    ]}
  ]
}
